Test results taken from the nanobody polyreactivity screen of Harvey et al. (2022).

Assay: yeast display, Sf9 membrane polyspecificity reagent, FACS + sequencing; frameworks hold sequencing errors
Method in brief: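 Synthetic nanobody libraries on Saccharomyces cerevisiae BJ5465 were galactose-induced for 36–48 hours, stained 1 hour at 4 °C with 10% biotinylated, detergent-solubilized Sf9 membrane reagent and enriched on streptavidin microbeads. FACS then separated cells into low and high (top ~1%) gates by anti-HA (expression) and streptavidin (reagent binding) fluorescence. Genes were colony-PCR amplified, MiSeq 2 × 250 sequenced and CDR-length filtered. A clone's polyreactivity label is that of its gate of origin.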
In the case of “QLQLVESGGGLVQAGGSLRLSCAASGITFYGYAMGWYRQAPGKERELVAAISSRGGSTYYADSVKGRFTISRDNAKNTVYLQMNRLKPEDTAVYYCAAVYYTGEYYYWGQGTQVTVSS”, the “polyreactivity (PSR sort gate)” value is reported as “high polyreactivity”.
For “QVQLVESGGGLVQAGGSLRLSCAASGRIFRHYAMGWYRQAPGKVRELVAAIRWSGGSTYYADSVKGRFTISRDNAKNTVYLQMNSLKPADTAVYYCATRDAVGHRPSGPYQLYDYWGQGTQVTVSS”, the “polyreactivity (PSR sort gate)” value was “low polyreactivity”.
With “QVQLVESGGGLVQAGGSLRLSCAASGFTFYYNAMGWYRQAPGKERELVSIRFRGGNTYYADSVKVRFTISRDNAKNTVYLQMNSLKPVDTAVYYCNADDRVSTYVDFDYWGQGTQVTVSS” the “polyreactivity (PSR sort gate)” value was “low polyreactivity”.
In the case of “QVQHVESGGGLVQAGGSLRLSCAASGYTFYIYPMGWYRQAPGKERELVATISSSGGGTYYADSVKGRFTISRDNAKNTVYLQMNSLKPEETAVYYCAADSWRYVAEGLWREYDYWGQRTQVTVSS”, the “polyreactivity (PSR sort gate)” value is reported as “low polyreactivity”.
In the case of “QVQLVESGGGLVQAGGSLRLSCAASGRIFYSNTMGWYRQAPGKERELVARIDTGGGSTYADSVKGRFTISRDNAKNTVYLQMNSLKPEDTAVYYCNKKGRWRSWGSTSLVSMDYWGQGTQVTVSS”, the “polyreactivity (PSR sort gate)” value is reported as “low polyreactivity”.
With “QVQLVESGGGLVQAGGSLRLSCAASGFIFSYYAMGWYRQAPGKERELVAAISGSGGSTYYADSVKGRFTISRDNAKNTVYLQMNSLKPEDTAVYYCAAVSSYSRVYYWGQGTQVTVSS” the “polyreactivity (PSR sort gate)” value was “high polyreactivity”.
For “QVQLVESGRGLVQAGGSLRLSCAASGSTFGRYVMGWYRQAPGKERELVAAISKNAGSTYYADSVKGRFTISRDNAKNTVYLQMNSLKPEDTAVYYCNRERRYRNDYWGQGTQVTVSS”, the “polyreactivity (PSR sort gate)” value was “high polyreactivity”.
In the case of “QVQLVESGGGLVQAGGSLSLSCAASGSNFVYYAMGWSRQAPGKERELVAAINFRGGNTYYADSVKGRFTISRDNAKNTVYLQMNSLKPEDTAVYYCAADYRWKWIGGARYDYWGQGTQVTVSS”, the “polyreactivity (PSR sort gate)” value is reported as “low polyreactivity”.
With “QLQLVESGRGLVQAGVSLRLSCAASGFIFEDYAMGCYRTAPGNDRELVAAISRRGGSTYYADSVKGRFTISRYNAKKTVYLQMNSLKPEDTAVYYCAAYYPYSGKGGYDYWGQGTQVTVSS” the “polyreactivity (PSR sort gate)” value was “high polyreactivity”.
With “QVQLVESGGGLVQAGGSLRLSCAASGFIFTNYAIGWYRQAPGKVRELVATISSGGGSTYYADSVKGRFTISRDNAKNTVYLQMNSLKQEDTAVYYCAASRRITGIRYINRYEYWGQGTQVTVSS” the “polyreactivity (PSR sort gate)” value was “high polyreactivity”.
For “QVQLVESGGGLVQAGGSLRLSCAASGFIFGHNTMGWYRQAPGKERELVARITSSGGGTNYADSVKGRFTISRDNAKNTVYLQMNSLKPEDTAVYYCAAELLYWGYYDYDYWGQGTQVTVSS”, the “polyreactivity (PSR sort gate)” value was “high polyreactivity”.
With “QVQLVESGGGLVHAGGSLRLSCAASGSTFKYYAMGWYRQAPGKERELVAAISSGNSTYYADSVKGRFTISRDNAKNTVYLQMNSLKPEDTAVYYCAAYWRRDPMDYWGQGTQVTVSS” the “polyreactivity (PSR sort gate)” value was “high polyreactivity”.
For “QVQLVESGGGLVQAGGSLRLSCAASGSTFSFYAMGWYRQAPGKERELVAVFTRGGSTYYADSVKGRFTISRDNAKNTVYLQMNSLKPEDTAVYYCAARSTSNGQRSLHYGYWGQGTQVTVSS”, the “polyreactivity (PSR sort gate)” value was “low polyreactivity”.
With “QVQLVESGGGLVQAGGSLRLSCAASGSTFYRYMGWYRQAPGKERELVADISSSGDTYYADSVKGRFTISRDNAKNTVYLQMNSLKPEDTAVYYCAADVSVGYWWSYSMDYWGQGTQVTVSS” the “polyreactivity (PSR sort gate)” value was “high polyreactivity”.
With “QVQLVESGGGLVQAGGSLRLSCAASGSIFRRYAMGWYRQAPGKERELVAAISFSGGSTYYADSVKGRFTISRDNAKNTVYLQMNSLKPEDTAVYYCAARSYAYSGDYWGQGTQVNVSS” the “polyreactivity (PSR sort gate)” value was “high polyreactivity”.
With “QVQLVESGGGIVQAGGSLRLSCAASGFIFSYYVMGWYRQAPGKEREFVAAITYSGTYTYYADSVKGRFTISRDNAKNTVYLQMNSLKPEDTAVYYCAAYSPRYNAHDYWGQGTQVTVSS” the “polyreactivity (PSR sort gate)” value was “high polyreactivity”.
